Holding throughout (assay): SPR; mouse CACHD1ECD as analyte; FZD CRDs or LRP6 fragments immobilised; equilibrium dissociation constants
(In general: Surface plasmon resonance follows binding to a sensor surface in real time, without labels.)

Test [1] concerns the target human FZD7 cysteine-rich domain (FZD7CRD) (human) (UniProt O75084).
The target in test [2] is human FZD8 cysteine-rich domain (FZD8CRD) (human) (UniProt Q9H461).
The target of test [3] is human LRP6 membrane distal fragment (LRP6_(P1E1P2E2)) (human) (UniProt O75581).

Among the data in paper PMC7615972 are Kd values, retold here.

The term Kd denotes the constant that tells how readily two partners part at equilibrium.

purified mouse CACHD1 extracellular domain (CACHD1ECD), sequence (Q6PDJ1 50-1109): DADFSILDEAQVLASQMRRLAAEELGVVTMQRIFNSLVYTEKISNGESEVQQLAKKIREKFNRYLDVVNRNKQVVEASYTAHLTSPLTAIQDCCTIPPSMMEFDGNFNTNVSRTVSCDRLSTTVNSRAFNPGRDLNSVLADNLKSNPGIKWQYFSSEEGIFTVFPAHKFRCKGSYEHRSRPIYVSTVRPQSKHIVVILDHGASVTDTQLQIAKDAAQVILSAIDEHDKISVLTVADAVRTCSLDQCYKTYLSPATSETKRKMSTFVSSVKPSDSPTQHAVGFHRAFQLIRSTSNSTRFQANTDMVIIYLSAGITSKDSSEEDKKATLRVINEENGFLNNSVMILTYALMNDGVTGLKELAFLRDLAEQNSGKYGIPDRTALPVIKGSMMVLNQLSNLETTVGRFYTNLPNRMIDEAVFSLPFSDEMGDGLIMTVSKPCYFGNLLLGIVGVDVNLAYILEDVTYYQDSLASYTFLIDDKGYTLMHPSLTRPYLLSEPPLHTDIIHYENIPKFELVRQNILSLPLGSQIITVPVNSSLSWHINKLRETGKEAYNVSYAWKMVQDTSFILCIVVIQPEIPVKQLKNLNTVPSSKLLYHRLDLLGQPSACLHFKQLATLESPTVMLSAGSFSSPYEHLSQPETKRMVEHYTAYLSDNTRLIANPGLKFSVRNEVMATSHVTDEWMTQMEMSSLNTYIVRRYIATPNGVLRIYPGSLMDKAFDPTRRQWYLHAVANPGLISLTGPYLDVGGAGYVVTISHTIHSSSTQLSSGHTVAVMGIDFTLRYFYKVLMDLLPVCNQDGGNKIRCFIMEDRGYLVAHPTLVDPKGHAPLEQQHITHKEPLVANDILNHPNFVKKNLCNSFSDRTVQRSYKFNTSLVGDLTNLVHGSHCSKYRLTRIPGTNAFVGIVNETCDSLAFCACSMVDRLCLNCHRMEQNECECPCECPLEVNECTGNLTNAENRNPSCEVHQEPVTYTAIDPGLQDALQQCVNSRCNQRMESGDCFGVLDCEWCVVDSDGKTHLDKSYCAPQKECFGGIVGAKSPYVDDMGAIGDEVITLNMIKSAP
human FZD8 cysteine-rich domain (FZD8CRD) (human), sequence (Q9H461 28-694): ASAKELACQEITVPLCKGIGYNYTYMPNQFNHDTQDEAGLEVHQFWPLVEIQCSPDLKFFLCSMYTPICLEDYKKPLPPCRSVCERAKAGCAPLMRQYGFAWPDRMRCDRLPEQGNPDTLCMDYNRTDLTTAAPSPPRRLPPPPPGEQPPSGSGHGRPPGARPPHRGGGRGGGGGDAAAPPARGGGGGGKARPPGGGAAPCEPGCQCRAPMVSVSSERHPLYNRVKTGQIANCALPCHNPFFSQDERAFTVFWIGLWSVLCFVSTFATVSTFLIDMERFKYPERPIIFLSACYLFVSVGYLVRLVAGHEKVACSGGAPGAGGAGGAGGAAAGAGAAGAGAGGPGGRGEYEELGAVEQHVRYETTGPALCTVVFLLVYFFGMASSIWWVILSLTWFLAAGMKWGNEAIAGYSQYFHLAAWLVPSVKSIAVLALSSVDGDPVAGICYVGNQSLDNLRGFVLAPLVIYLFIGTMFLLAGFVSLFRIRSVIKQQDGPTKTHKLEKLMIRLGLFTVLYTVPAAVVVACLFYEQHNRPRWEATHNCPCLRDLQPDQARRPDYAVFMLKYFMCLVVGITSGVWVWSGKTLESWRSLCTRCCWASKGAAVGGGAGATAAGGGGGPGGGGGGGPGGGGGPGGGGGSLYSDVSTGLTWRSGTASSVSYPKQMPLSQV
human LRP6 membrane distal fragment (LRP6_(P1E1P2E2)) (human), sequence (O75581 20-1613): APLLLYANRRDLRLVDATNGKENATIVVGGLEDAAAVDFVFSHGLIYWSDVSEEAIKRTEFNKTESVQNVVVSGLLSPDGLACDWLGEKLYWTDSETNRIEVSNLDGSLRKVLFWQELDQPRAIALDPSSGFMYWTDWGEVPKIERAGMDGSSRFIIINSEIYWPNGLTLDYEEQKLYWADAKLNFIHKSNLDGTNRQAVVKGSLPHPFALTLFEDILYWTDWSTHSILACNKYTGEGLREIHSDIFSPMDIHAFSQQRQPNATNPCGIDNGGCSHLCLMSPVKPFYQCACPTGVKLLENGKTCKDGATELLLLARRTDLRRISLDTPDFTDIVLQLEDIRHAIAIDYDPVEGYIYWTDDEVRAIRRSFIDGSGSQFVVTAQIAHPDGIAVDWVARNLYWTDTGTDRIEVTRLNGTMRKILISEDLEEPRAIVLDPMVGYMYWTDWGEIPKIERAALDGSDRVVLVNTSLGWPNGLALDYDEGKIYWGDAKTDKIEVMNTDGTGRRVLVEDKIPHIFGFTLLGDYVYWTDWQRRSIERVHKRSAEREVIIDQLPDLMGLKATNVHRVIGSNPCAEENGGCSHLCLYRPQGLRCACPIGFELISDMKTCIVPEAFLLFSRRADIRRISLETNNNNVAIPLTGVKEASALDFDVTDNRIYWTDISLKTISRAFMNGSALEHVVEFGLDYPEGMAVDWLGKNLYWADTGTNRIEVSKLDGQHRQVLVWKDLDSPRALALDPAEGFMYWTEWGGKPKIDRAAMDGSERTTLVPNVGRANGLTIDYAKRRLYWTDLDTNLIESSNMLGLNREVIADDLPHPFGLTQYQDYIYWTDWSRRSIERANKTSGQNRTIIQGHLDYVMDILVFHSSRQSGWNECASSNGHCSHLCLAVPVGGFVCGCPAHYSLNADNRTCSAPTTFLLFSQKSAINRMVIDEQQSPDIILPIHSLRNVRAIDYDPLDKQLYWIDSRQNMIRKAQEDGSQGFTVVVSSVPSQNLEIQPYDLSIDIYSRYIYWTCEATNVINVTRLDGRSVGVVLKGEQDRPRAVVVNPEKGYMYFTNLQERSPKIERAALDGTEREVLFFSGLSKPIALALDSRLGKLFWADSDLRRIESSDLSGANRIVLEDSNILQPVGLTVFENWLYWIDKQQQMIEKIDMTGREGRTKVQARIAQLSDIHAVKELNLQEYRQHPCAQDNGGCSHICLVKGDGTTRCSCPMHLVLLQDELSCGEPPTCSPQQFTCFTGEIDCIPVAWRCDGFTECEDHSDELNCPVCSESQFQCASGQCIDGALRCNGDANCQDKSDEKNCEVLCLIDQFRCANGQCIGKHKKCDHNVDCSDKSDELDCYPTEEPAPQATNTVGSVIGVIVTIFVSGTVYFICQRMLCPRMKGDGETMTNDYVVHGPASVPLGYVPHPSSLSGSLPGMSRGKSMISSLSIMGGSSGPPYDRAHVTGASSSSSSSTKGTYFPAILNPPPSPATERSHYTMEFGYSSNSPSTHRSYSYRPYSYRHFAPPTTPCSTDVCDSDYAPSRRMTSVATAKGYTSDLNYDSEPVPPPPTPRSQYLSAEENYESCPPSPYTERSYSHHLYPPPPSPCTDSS

“purified mouse CACHD1 extracellular domain (CACHD1ECD) (from UniProt Q6PDJ1 50-1109) (domain or fragment)”: the results for the dissociation constant (Kd) in test [1], in test [2] and in test [3] were 14.2 µM, 0.95 µM and 5.86 µM, respectively.
